Assay results published in the RNAGym collection of RNA variant scans (doi:10.1073/pnas.2313332121).

B1: TPR t1 (parent)
chain: GACCAAUCUGCCCUCAGAGCUCGAGAACAUCUUCGGAUGCAGAGGAGGCAGGCUUCGGUGGCGCGAUAGCGCCAACGUCCUCAACCUCCAAUGCAUCCCACCACAUGAUGAUGCCUGAAGAGCCUUGGUUUUUUG

Variants of: B1
Assay: polymerase ribozyme fitness, log enrichment relative to wild type (log ratio); higher = more active; in vitro selection for triplet polymerase activity
Procedure, shortened: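 Fitness compares each genotype's enrichment to that of the wild type on a logarithmic scale, averaging replicates with inverse-variance weights. The logarithm is base 2. Enrichment came from Illumina sequencing of input and output libraries after one triplicate round of in vitro selection, which included frozen incubation at −7 °C, of PCR-built, transcribed mutant libraries of each subunit of a heterodimeric triplet polymerase ribozyme. Only genotypes with ≥10 input reads and ≥1 read per output were kept.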

| Variant | polymerase ribozyme fitness (log ratio) |
| --- | --- |
| A74U C114G C124A U125C | -1.43 |
| A83U C115U C123G G135U | -1.98 |
| G77A U116A | -4.07 |
| A84U C101U G122A U132A | -1.15 |
| C73U U96A | -1.16 |
| C82U C89A | -1.21 |
| U78G U116C U133A | -0.304 |
| C80A C85U C86A U87C | -7.24 |
| C82A U92A | -3.43 |
| G77A A91U | -1.6 |
| U78C C88U A121C | 1.67 |
| U78C G93U C124A | 0.632 |
| G77U C89U A91U U116C G120C G135A | -2.85 |
| U78A U112C G120A | -0.475 |
| A74U G93A | -0.498 |
| A83C A121G | 1.63 |
| C76U G120A | 1.69 |
| C82U G117U | -2.7 |
| U78G G113A C124G | -0.667 |
| U81A C102A | -3.36 |
| A83C G113U | -3.09 |
| A83G C97U C115A G135C | -1.7 |
| C79G U96A | -2.96 |
| U78C C94U | -0.58 |

| Variant | polymerase ribozyme fitness (log ratio) |
| --- | --- |
| A84C U116C | 0.658 |
| A84C C114G G127A | -4.73 |
| C73U U106A | -0.212 |
| U78G C102U | -1.93 |
| C80U C98U | -1.69 |
| U78G C114U U129G | -4.71 |
| U78C U106A | 0.00582 |
| C79A G107A G117U | -6.98 |
| A83G C89A U106G | -4.3 |
| U81G U130A | -3.23 |
| A83C G107U G113A | -3.74 |
| C79A C94A | -2.38 |
| C79U U81A | -1.75 |
| C82G G128A | -2.22 |
| C79A C101U | -1.4 |
| A75G C114A | -2.36 |
| U78G U109A | -6.21 |
| A74C C101G | -2.14 |
| A83U G120U U130C | -0.376 |
| G77C U125C | -3.91 |
| C79A C85U | -2.34 |
| U78A C104U C115U | -1.54 |
| C80U C97U | -0.856 |
| C79A A95U | -1.9 |

| Variant | polymerase ribozyme fitness (log ratio) |
| --- | --- |
| A84U G128A | -1.72 |
| C73U U125A | -0.171 |
| A83C G110U G117U | -5.17 |
| C76G G93A C104U U133A | -0.348 |
| U78A C89U C104U | -1.1 |
| G77U U131A | -0.157 |
| C82G G110U | -3.25 |
| U78C C88G | -0.636 |
| A84U C97A | -5.72 |
| C79A G113C | -3.64 |
| C82G C88U A103C G117C | -5.02 |
| G77U | -0.194 |
| G77C | -0.424 |
| G77A | -0.264 |
| G77C C114A C124U | -2.41 |
| U81A G117U | -3.99 |
| C76G A90C C101U | -1 |
| G77A C82A G110A C123A | -2.98 |
| C80A U96C C115A | -3.34 |
| A84U C115A | -0.457 |
| C80G U87A U116G A119U C124G | -6.5 |
| U78C C94G A108G C114G U130G | -5.42 |
| C73U C98A | -4.94 |
| A83U G120A U125A | 0.929 |

| Variant | polymerase ribozyme fitness (log ratio) |
| --- | --- |
| U81G C94G G117U | -6.8 |
| A74U C88G U112G U132G G135A | -0.922 |
| C82G C97A U112C C115G U133G | -6.38 |
| C73U U132C | -0.238 |
| C80A A84G C98U | -6.69 |
| C80G U132C | -4.66 |
| A83G C89A | -3.89 |
| C82A G110U C123U | -2.47 |
| U78A C123U | 1.1 |
| C73U G113A | -0.0568 |
| A83C C101G U109A G120A | -7.06 |
| C80A C114G G117U | -6.34 |
| G77U C101G G127A | -2.44 |
| G77U U81G | -3.24 |
| U78A U92G U125G | -4.08 |
| U78G C89A G117A | -4.25 |
| C82A C123U | 0.707 |
| C79G U87G U92C G120U | -4.54 |
| G77U C115G G128C | -2.98 |
| A75U C99U | -3.69 |
| C82U A91U A100U | -3.25 |
| C73U G127C | -0.681 |
| C73U G127U | -0.489 |
| U81A A90U | -2.41 |

| Variant | polymerase ribozyme fitness (log ratio) |
| --- | --- |
| U78A G107C | -6.06 |
| U78G A84U C115U A121C | -3.92 |
| U78G C80U G93U | -1.61 |
| U81A C82A C98U | -3.39 |
| C79G G120A U130C | -1.26 |
| G77U U132A | -0.53 |
| C82G C99U | -3.61 |
| C80G U106G G110A C124G | -6.57 |
| C80A A84U | -3.74 |
| C76U U81A | -0.892 |
| C80U U106A | -0.267 |
| C73U U81A | -3.27 |
| C76U A105C | -2.5 |
| C79U G93A C102A | -2.33 |
| C79G C82U U130A | -2.13 |
| U78A U130G | -0.269 |
| U78A C124G | 1.42 |
| A75G C88G | -1.04 |
| A74C U78G C80U C115A | -2.23 |
| C82U C89U G113U G120A G128A | -5.47 |
| C76U C79A G120C | 0.319 |
| U78A C114A | -1.63 |
| A83C U92A C114A G128C | -6.64 |
| U78C C80G A121G | -2.75 |

| Variant | polymerase ribozyme fitness (log ratio) |
| --- | --- |
| U78C C85G | -1.82 |
| C82A G93C A111C | -0.977 |
| A74C G113U C115U G117A C123A | -6.47 |
| C80U C85A | -2.89 |
| C73U C124A G127C | 1.61 |
| C79U C89U C102U G120C | -2.83 |
| C79U C124A | 1.12 |
| C79U C124G | 1.81 |
| C79G A83G C89G | -3.62 |
| A75U C99U U109G C115U U116A | -7.29 |
| U78C A83G U106C | -1.19 |
| C73U U78A C88G G120U | -1.15 |
| A84G | -0.482 |
| A84U | -0.405 |
| A84C | -0.112 |
| U78A C94A U125G | -2.31 |
| C79U C82A | -1.23 |
| C82U U87C G113A | -1.19 |
| A74U U87A | -0.842 |
| C76G U81C C94A G117A | -2.22 |
| C79G U126A G128U | -4.31 |
| A84G A118G | -0.615 |
| C82G A118U | 0.179 |
| C82G G117C | -3.58 |

| Variant | polymerase ribozyme fitness (log ratio) |
| --- | --- |
| U78A C79A A95C U133A | -4.23 |
| A84U U112G | 0.742 |
| A84U U106A | -0.185 |
| C80U C102A U106A U112A | -4.1 |
| U78G G93A G120U | -0.265 |
| A83U C98U U130C | -0.673 |
| C79G C89U U112A | -2.07 |
| C73U U96G G117A | -2.78 |
| U78C U130C | 0.0983 |
| C82G U109C | -5.03 |
| G77C U106A A111C C114G U131C | -5.23 |
| C73U G120A | 0.593 |
| A74C C82A A105U | -2.29 |
| A74C U106A C123U | 1.18 |
| U78C U112A | 1.12 |
| G77U C124G | 1.96 |
| A75G G113C | -2.4 |
| C79A C88U C101U | -0.735 |
| A75U C76G C88A A90U C114U | -2.85 |
| U78G G113U | -3.89 |
| U78G G113A | -1.05 |
| A74U G93U G117C | -5.37 |
| C79G C101A G135U | -4.68 |
